Starred links: 1 amine or outer side, 2 acyl side, 3 side chain; linkers in the order of their positions; H or OH if unused. Non-standard residues stand in square brackets, D forms with d. Groups on a side chain read outwards from the residue. No end group written: not given here. *: point of attachment. C20 diacid = O=C(O)CCCCCCCCCCCCCCCCCCC(=O)*; C18 diacid = O=C(O)CCCCCCCCCCCCCCCCC(=O)*; γGlu = O=C(O)[C@H](CCC(=O)[*:2])N[*:1]; αMeF = C[C@](N)(Cc1ccccc1)C(=O)O; AEEA = NCCOCCOCC(=O)O; Aib = CC(C)(N)C(=O)O
Columns and labels:
[1] = biological target: human GLP-1 receptor (hGLP-1R) (human, UniProt P43220 24-463); assay: cell-based or functional assay
[2] = biological target: human glucagon receptor (hGCGR) (human, UniProt P47871 26-477); assay: cell-based or functional assay
human glucagon receptor (hGCGR), sequence (P47871 26-477): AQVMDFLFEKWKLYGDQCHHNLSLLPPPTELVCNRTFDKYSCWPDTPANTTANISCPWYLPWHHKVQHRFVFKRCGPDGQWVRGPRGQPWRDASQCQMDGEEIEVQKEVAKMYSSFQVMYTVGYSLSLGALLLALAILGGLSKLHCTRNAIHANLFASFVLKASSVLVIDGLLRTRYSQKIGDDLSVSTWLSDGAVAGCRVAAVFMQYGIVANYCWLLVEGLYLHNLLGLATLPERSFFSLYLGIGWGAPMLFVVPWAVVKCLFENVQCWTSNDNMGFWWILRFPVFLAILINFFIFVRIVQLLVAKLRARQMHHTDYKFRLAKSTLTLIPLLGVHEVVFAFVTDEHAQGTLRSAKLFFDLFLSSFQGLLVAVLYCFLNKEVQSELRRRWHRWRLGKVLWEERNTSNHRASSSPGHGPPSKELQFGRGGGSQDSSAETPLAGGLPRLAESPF

B1: Peptide 410 (peptide)
peptide: H[Aib]QGTFTSDVSK[αMeF]LDTK([AEEA-AEEA-γGlu-C20 diacid])RARDFVAWLL[Aib]TE-OH
modifications: N-terminus assumed
SMILES: CC(C)C[C@H](NC(=O)[C@H](Cc1c[nH]c2ccccc12)NC(=O)[C@H](C)NC(=O)[C@@H](NC(=O)[C@H](Cc1ccccc1)NC(=O)[C@H](CC(=O)O)NC(=O)[C@H](CCCNC(=N)N)NC(=O)[C@H](C)NC(=O)[C@H](CCCNC(=N)N)NC(=O)[C@H](CCCCNC(=O)COCCOCCNC(=O)COCCOCCNC(=O)CC[C@H](NC(=O)CCCCCCCCCCCCCCCCCCC(=O)O)C(=O)O)NC(=O)[C@@H](NC(=O)[C@H](CC(=O)O)NC(=O)[C@H](CC(C)C)NC(=O)[C@](C)(Cc1ccccc1)NC(=O)[C@H](CCCCN)NC(=O)[C@H](CO)NC(=O)[C@@H](NC(=O)[C@H](CC(=O)O)NC(=O)[C@H](CO)NC(=O)[C@@H](NC(=O)[C@H](Cc1ccccc1)NC(=O)[C@@H](NC(=O)CNC(=O)[C@H](CCC(N)=O)NC(=O)C(C)(C)NC(=O)[C@@H](N)Cc1c[nH]cn1)[C@@H](C)O)[C@@H](C)O)C(C)C)[C@@H](C)O)C(C)C)C(=O)N[C@@H](CC(C)C)C(=O)NC(C)(C)C(=O)N[C@H](C(=O)N[C@@H](CCC(=O)O)C(=O)O)[C@@H](C)O
[1]
  hGLP-1R EC50 (pM): 78 pM
[2]
  hGluc-R EC50 (pM): 455 pM

B2: Peptide 409 (peptide)
peptide: H[Aib]QGTFTSDVSK[αMeF]LDTK([AEEA-AEEA-γGlu-C18 diacid])RARDFVAWLL[Aib]TE-OH
modifications: N-terminus assumed
SMILES: CC(C)C[C@H](NC(=O)[C@H](Cc1c[nH]c2ccccc12)NC(=O)[C@H](C)NC(=O)[C@@H](NC(=O)[C@H](Cc1ccccc1)NC(=O)[C@H](CC(=O)O)NC(=O)[C@H](CCCNC(=N)N)NC(=O)[C@H](C)NC(=O)[C@H](CCCNC(=N)N)NC(=O)[C@H](CCCCNC(=O)COCCOCCNC(=O)COCCOCCNC(=O)CC[C@H](NC(=O)CCCCCCCCCCCCCCCCC(=O)O)C(=O)O)NC(=O)[C@@H](NC(=O)[C@H](CC(=O)O)NC(=O)[C@H](CC(C)C)NC(=O)[C@](C)(Cc1ccccc1)NC(=O)[C@H](CCCCN)NC(=O)[C@H](CO)NC(=O)[C@@H](NC(=O)[C@H](CC(=O)O)NC(=O)[C@H](CO)NC(=O)[C@@H](NC(=O)[C@H](Cc1ccccc1)NC(=O)[C@@H](NC(=O)CNC(=O)[C@H](CCC(N)=O)NC(=O)C(C)(C)NC(=O)[C@@H](N)Cc1c[nH]cn1)[C@@H](C)O)[C@@H](C)O)C(C)C)[C@@H](C)O)C(C)C)C(=O)N[C@@H](CC(C)C)C(=O)NC(C)(C)C(=O)N[C@H](C(=O)N[C@@H](CCC(=O)O)C(=O)O)[C@@H](C)O
[1]
  hGLP-1R EC50 (pM): 22.7 pM
[2]
  hGluc-R EC50 (pM): 203 pM

B3: Peptide 415 (peptide)
peptide: H[Aib]QGTFTSDVSK[αMeF]LESK([AEEA-AEEA-γGlu-C18 diacid])RAQDFVRWLEA[Aib]G-OH
modifications: N-terminus assumed
SMILES: CC(C)C[C@H](NC(=O)[C@H](Cc1c[nH]c2ccccc12)NC(=O)[C@H](CCCNC(=N)N)NC(=O)[C@@H](NC(=O)[C@H](Cc1ccccc1)NC(=O)[C@H](CC(=O)O)NC(=O)[C@H](CCC(N)=O)NC(=O)[C@H](C)NC(=O)[C@H](CCCNC(=N)N)NC(=O)[C@H](CCCCNC(=O)COCCOCCNC(=O)COCCOCCNC(=O)CC[C@H](NC(=O)CCCCCCCCCCCCCCCCC(=O)O)C(=O)O)NC(=O)[C@H](CO)NC(=O)[C@H](CCC(=O)O)NC(=O)[C@H](CC(C)C)NC(=O)[C@](C)(Cc1ccccc1)NC(=O)[C@H](CCCCN)NC(=O)[C@H](CO)NC(=O)[C@@H](NC(=O)[C@H](CC(=O)O)NC(=O)[C@H](CO)NC(=O)[C@@H](NC(=O)[C@H](Cc1ccccc1)NC(=O)[C@@H](NC(=O)CNC(=O)[C@H](CCC(N)=O)NC(=O)C(C)(C)NC(=O)[C@@H](N)Cc1c[nH]cn1)[C@@H](C)O)[C@@H](C)O)C(C)C)C(C)C)C(=O)N[C@@H](CCC(=O)O)C(=O)N[C@@H](C)C(=O)NC(C)(C)C(=O)NCC(=O)O
[1]
  hGLP-1R EC50 (pM): 14.7 pM
[2]
  hGluc-R EC50 (pM): 301 pM

B4: Peptide 412 (peptide)
peptide: H[Aib]QGTFTSDVSK[αMeF]LDTK([AEEA-AEEA-γGlu-C20 diacid])RAQDFVAWLEAGG-OH
modifications: N-terminus assumed
SMILES: CC(C)C[C@H](NC(=O)[C@H](Cc1c[nH]c2ccccc12)NC(=O)[C@H](C)NC(=O)[C@@H](NC(=O)[C@H](Cc1ccccc1)NC(=O)[C@H](CC(=O)O)NC(=O)[C@H](CCC(N)=O)NC(=O)[C@H](C)NC(=O)[C@H](CCCNC(=N)N)NC(=O)[C@H](CCCCNC(=O)COCCOCCNC(=O)COCCOCCNC(=O)CC[C@H](NC(=O)CCCCCCCCCCCCCCCCCCC(=O)O)C(=O)O)NC(=O)[C@@H](NC(=O)[C@H](CC(=O)O)NC(=O)[C@H](CC(C)C)NC(=O)[C@](C)(Cc1ccccc1)NC(=O)[C@H](CCCCN)NC(=O)[C@H](CO)NC(=O)[C@@H](NC(=O)[C@H](CC(=O)O)NC(=O)[C@H](CO)NC(=O)[C@@H](NC(=O)[C@H](Cc1ccccc1)NC(=O)[C@@H](NC(=O)CNC(=O)[C@H](CCC(N)=O)NC(=O)C(C)(C)NC(=O)[C@@H](N)Cc1c[nH]cn1)[C@@H](C)O)[C@@H](C)O)C(C)C)[C@@H](C)O)C(C)C)C(=O)N[C@@H](CCC(=O)O)C(=O)N[C@@H](C)C(=O)NCC(=O)NCC(=O)O
[1]
  hGLP-1R EC50 (pM): 186 pM
[2]
  hGluc-R EC50 (pM): 397 pM

## H[Aib]QGTFTSDVSK[αMeF]LDTK([AEEA-AEEA-γGlu-γGlu-C20 diacid])RAQDFVAWLEAGG-OH [Peptide 413]
[1]
  hGLP-1R EC50 (pM): 406 pM
[2]
  hGluc-R EC50 (pM): 1020 pM

B5: Peptide 414 (peptide)
peptide: H[Aib]QGTFTSDVSK[αMeF]LDKK([AEEA-AEEA-γGlu-C18 diacid])RARDFVRWLL[Aib]E-OH
modifications: N-terminus assumed
SMILES: CC(C)C[C@H](NC(=O)[C@H](Cc1c[nH]c2ccccc12)NC(=O)[C@H](CCCNC(=N)N)NC(=O)[C@@H](NC(=O)[C@H](Cc1ccccc1)NC(=O)[C@H](CC(=O)O)NC(=O)[C@H](CCCNC(=N)N)NC(=O)[C@H](C)NC(=O)[C@H](CCCNC(=N)N)NC(=O)[C@H](CCCCNC(=O)COCCOCCNC(=O)COCCOCCNC(=O)CC[C@H](NC(=O)CCCCCCCCCCCCCCCCC(=O)O)C(=O)O)NC(=O)[C@H](CCCCN)NC(=O)[C@H](CC(=O)O)NC(=O)[C@H](CC(C)C)NC(=O)[C@](C)(Cc1ccccc1)NC(=O)[C@H](CCCCN)NC(=O)[C@H](CO)NC(=O)[C@@H](NC(=O)[C@H](CC(=O)O)NC(=O)[C@H](CO)NC(=O)[C@@H](NC(=O)[C@H](Cc1ccccc1)NC(=O)[C@@H](NC(=O)CNC(=O)[C@H](CCC(N)=O)NC(=O)C(C)(C)NC(=O)[C@@H](N)Cc1c[nH]cn1)[C@@H](C)O)[C@@H](C)O)C(C)C)C(C)C)C(=O)N[C@@H](CC(C)C)C(=O)NC(C)(C)C(=O)N[C@@H](CCC(=O)O)C(=O)O
[1]
  hGLP-1R EC50 (pM): 32.3 pM
[2]
  hGluc-R EC50 (pM): 26.9 pM

B6: Peptide 411 (peptide)
peptide: H[Aib]QGTFTSDVSK[αMeF]LDTK([AEEA-AEEA-γGlu-C18 diacid])RAQDFVAWLEAGG-OH
modifications: N-terminus assumed
SMILES: CC(C)C[C@H](NC(=O)[C@H](Cc1c[nH]c2ccccc12)NC(=O)[C@H](C)NC(=O)[C@@H](NC(=O)[C@H](Cc1ccccc1)NC(=O)[C@H](CC(=O)O)NC(=O)[C@H](CCC(N)=O)NC(=O)[C@H](C)NC(=O)[C@H](CCCNC(=N)N)NC(=O)[C@H](CCCCNC(=O)COCCOCCNC(=O)COCCOCCNC(=O)CC[C@H](NC(=O)CCCCCCCCCCCCCCCCC(=O)O)C(=O)O)NC(=O)[C@@H](NC(=O)[C@H](CC(=O)O)NC(=O)[C@H](CC(C)C)NC(=O)[C@](C)(Cc1ccccc1)NC(=O)[C@H](CCCCN)NC(=O)[C@H](CO)NC(=O)[C@@H](NC(=O)[C@H](CC(=O)O)NC(=O)[C@H](CO)NC(=O)[C@@H](NC(=O)[C@H](Cc1ccccc1)NC(=O)[C@@H](NC(=O)CNC(=O)[C@H](CCC(N)=O)NC(=O)C(C)(C)NC(=O)[C@@H](N)Cc1c[nH]cn1)[C@@H](C)O)[C@@H](C)O)C(C)C)[C@@H](C)O)C(C)C)C(=O)N[C@@H](CCC(=O)O)C(=O)N[C@@H](C)C(=O)NCC(=O)NCC(=O)O
[1]
  hGLP-1R EC50 (pM): 98.1 pM
[2]
  hGluc-R EC50 (pM): 378 pM

B7: Peptide 416 (peptide)
peptide: H[Aib]QGTFTSDVSK[αMeF]LESK([AEEA-AEEA-γGlu-C20 diacid])RAQDFVRWLEA[Aib]G-OH
modifications: N-terminus assumed
SMILES: CC(C)C[C@H](NC(=O)[C@H](Cc1c[nH]c2ccccc12)NC(=O)[C@H](CCCNC(=N)N)NC(=O)[C@@H](NC(=O)[C@H](Cc1ccccc1)NC(=O)[C@H](CC(=O)O)NC(=O)[C@H](CCC(N)=O)NC(=O)[C@H](C)NC(=O)[C@H](CCCNC(=N)N)NC(=O)[C@H](CCCCNC(=O)COCCOCCNC(=O)COCCOCCNC(=O)CC[C@H](NC(=O)CCCCCCCCCCCCCCCCCCC(=O)O)C(=O)O)NC(=O)[C@H](CO)NC(=O)[C@H](CCC(=O)O)NC(=O)[C@H](CC(C)C)NC(=O)[C@](C)(Cc1ccccc1)NC(=O)[C@H](CCCCN)NC(=O)[C@H](CO)NC(=O)[C@@H](NC(=O)[C@H](CC(=O)O)NC(=O)[C@H](CO)NC(=O)[C@@H](NC(=O)[C@H](Cc1ccccc1)NC(=O)[C@@H](NC(=O)CNC(=O)[C@H](CCC(N)=O)NC(=O)C(C)(C)NC(=O)[C@@H](N)Cc1c[nH]cn1)[C@@H](C)O)[C@@H](C)O)C(C)C)C(C)C)C(=O)N[C@@H](CCC(=O)O)C(=O)N[C@@H](C)C(=O)NC(C)(C)C(=O)NCC(=O)O
[1]
  hGLP-1R EC50 (pM): 67.7 pM
[2]
  hGluc-R EC50 (pM): 581 pM

Source: US20230357348A1 (AstraZeneca / MedImmune, published 2023)
